What was measured:
[1] = target: Asterias forbesii ferritin (AfFer) (Asterias forbesii); test: crystal structure; hanging drop vapour diffusion, 20 °C, 12.0 µM ferritin in 5.0 mM Tris-HCl; crystals with body-centered tetragonal (BCT) lattice; subunits in the 24-mer cage and cage to cage contacts
[2] = target: Asterias forbesii ferritin (AfFer) (Asterias forbesii); test: native gel or EMSA; native-PAGE and SDS-PAGE of purified AfFer; subunits to the 24-mer cage

## Asterias forbesii ferritin (AfFer) (natural protein)
[1]
  stoichiometry N: 24
[2]
  stoichiometry N: 24

— publication PMC10647799
